Columns and labels:
[1] = target: mVenus-tagged CaMKIIα K42R mutant holoenzyme (mouse) (UniProt P11798); experiment: FRET or BRET; in vitro time-lapse binary-FRET (mVenus lifetime for hetero-FRET to mCherry, anisotropy for homo-FRET); V-CaMKII homogenate (15-20 nM holoenzyme) with 10 µM purified NR2B fragment in 1x kinase buffer, 1 mM DTT, 1 mM CaCl2, 1 mM ATP, 1 mM MgCl2, 5 µM calmodulin; room temperature; followed over 3 h
[2] = target: mVenus-tagged CaMKIIα holoenzyme (mVenus-mCaMKIIα), wild type (mouse) (UniProt P11798); experiment: as above

hetero-FRET efficiency [1]: 12.6% | hetero-FRET efficiency [2]: 11.9%
Substance: mCherry-tagged NR2B binding fragment (6His-mCherry-Flag-NR2B 1265-1320) (from UniProt Q13224 1265-1320) (domain or fragment)

From PMC9596428
